Drawing on the supplement of paper PMC12042874, this text covers amyloid nucleation score for 99 substances.

± gives the uncertainty stated by the source.

The nature of one data set: amyloid nucleation score (Sup35N fusion, yeast selection) (log enrichment); library NNK2; higher = more nucleation; inactive = no reads after selection. In short, it runs like this: (§1)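 In psi-negative yeast, Sup35N fusions carrying peptides of 20 random codons were induced with 100 μM copper sulfate for 24 hours. The cells then grew 7 days at 30°C on medium lacking adenine and uracil, and plasmid inserts from input and output were Illumina-sequenced, excluding sequences with under 100 input reads. Nucleation score is the DiMSum log enrichment of output over input reads, centred on the mode score of non-aggregating sequences.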
Regarding LDSGHNGDVNGG, the amyloid nucleation score was -0.45 ± 0.64.
For the substance LWVVILGVGTSSNESYCKYV, the amyloid nucleation score was -0.427 ± 0.45.
On to TISLPYHHKVSRAMNSRF, for which the amyloid nucleation score was -0.028 ± 0.62.
As for RSSSVVEARGESST, the amyloid nucleation score worked out at 7.106 ± 0.041.
As to YKLFWKWGFSGITDDSTLMR, the amyloid nucleation score entry is “inactive”.
As to SYDGERVI, the amyloid nucleation score turned out to be 0.444 ± 0.28.
With WDNHYRIKYCG, the amyloid nucleation score entry was “inactive”.
FWRDLPAQWTRPKAENLVLK had an amyloid nucleation score of 1.23 ± 0.32.

A further data set in a line: amyloid nucleation score (Sup35N fusion, yeast selection) (log enrichment); library NNK3; higher = more nucleation; inactive = no reads after selection. In short, it runs like this: as §1
CSLVLSESPFGNI: the amyloid nucleation score result was “inactive”.
Take WRDFLYLRHGFQYGIRPMSE: the amyloid nucleation score result was “inactive”.
As to PLLFSRVSLDL, the amyloid nucleation score entry was “inactive”.
Still for that read-out and setting: the entry for FFVRH is “inactive”.
Regarding LYSVLGVVSTDSRRDAEWCQ, the amyloid nucleation score entry is “inactive”.
On to VLGDMVYGGHAL, for which the amyloid nucleation score result was “inactive”.
Still for that read-out and setting: under SFTLPSIGWWYALFRSYWID stands “inactive”; under QRDTSGEYGIVWYYVFNRTG, “inactive”; under AKARMNGEDGARLTSMHSLY, “inactive”.
KGYGCFTGMYSENARMMVIS displayed an amyloid nucleation score of 0.136 ± 0.66.
As for LYFNWWTRGTAMLYGI, the amyloid nucleation score result was “inactive”.
Same read-out and setting: under LVLMCIIARIAVVYKR stands “inactive”; under KTKGICSSMLVFC, “inactive”; under IGSAISGNYYTINNCDFDTS, “inactive”.
LCITPNLKSFFESYVRFSEL: the amyloid nucleation score result was “inactive”.
STIDKCLYINIAIYAIFPDF gave an amyloid nucleation score of 1.31 ± 0.12.
Consider SNVLGWLRKLYS, for which the amyloid nucleation score result is “inactive”.
The same measure, in the same setting: the entry for GLCSMLASFRTQYSS is “inactive”.
Still for that read-out and setting: the entry for VKDNFRFSLNRPMKRHVVWA is “inactive”; for MFECNWAIFRREFLRLVCTV it is “inactive”.
Consider YRPYC, for which the amyloid nucleation score result was “inactive”.
As to MKVWFSLPRILGGVKGTANK, the amyloid nucleation score result was “inactive”.
Regarding QTVNWSDDL, the amyloid nucleation score result is “inactive”.
With FYFVGKYWRGDEYFDFRLAV, the amyloid nucleation score result was “inactive”.
The same measure, in the same setting: the entry for IGFAD is “inactive”.
In the case of PLDSECEKDGHDTPYDYVVL, the amyloid nucleation score entry is “inactive”.
MLSGWFGLMIGCTAVVWSDS: the amyloid nucleation score entry is “inactive”.
As to GGQGIYMY, the amyloid nucleation score entry is “inactive”.
Consider LRVMSI, for which the amyloid nucleation score was -0.964 ± 2.5.
The substance AFLSMSGNLLVVYSGEGGSP returned an amyloid nucleation score of -0.027 ± 0.35.
In the case of IVIRTSSDTNVRAAVQLRMN, the amyloid nucleation score result is “inactive”.
As to HGKVGKRFRLGQKAYVSGLW, the amyloid nucleation score result is “inactive”.
The same measure, in the same setting: under VLLKALVIFDY stands “inactive”.
Turning to REVRTGLNLIPRRIVSNHTF, the amyloid nucleation score entry was “inactive”.
As for RYNWVYDFVLNRSSYWCW, the amyloid nucleation score result is “inactive”.
AVCCCGRNIHMRSCRPGTTL yielded an amyloid nucleation score of 0.531 ± 0.16.
The same measure, in the same setting: under TDLGSVGGW stands -0.206 ± 1.5; under NIWLP, “inactive”.
As for TRMGFYKAWYTAYVWRHALL, the amyloid nucleation score result is “inactive”.
Substance YSMQVICISCVLRIDIGDVA gave an amyloid nucleation score of 0.89 ± 0.16.
The substance AYKMTFWVQNYVFVYSFLFV yielded an amyloid nucleation score of 0.419 ± 0.23.
With GSVVTQGCGNLTLEAA, the amyloid nucleation score result was “inactive”.
Turning to DYESCEIRVLETEWIGVGT, the amyloid nucleation score result is “inactive”.
With YSSARTFSLHCIERLYSGYV, the amyloid nucleation score entry was “inactive”.
For the substance CLVKHRPHSEVACGADNVCR, the amyloid nucleation score entry is “inactive”.
With VDRFRSQNKFVSNGMSLIRK, the amyloid nucleation score entry was “inactive”.
ILTYINEMSHLPWV: the amyloid nucleation score entry was “inactive”.
Regarding RGATC, the amyloid nucleation score result was “inactive”.
Turning to LMNEY, the amyloid nucleation score entry is “inactive”.
The substance FNAKFFSQNMSVWCGVFM showed an amyloid nucleation score of 2.6 ± 0.078.
For the substance QQWWLLFSLC, the amyloid nucleation score entry was “inactive”.
On the same count and under the same terms, under NYVTLKSKGITMSWLLLDYR stands “inactive”; under FYSNPNIVGFLMLLVYILEP, “inactive”.
On the same count and under the same terms, under HHLKGQ stands “inactive”.
Turning to FLKLGDSGRVYLLCFLAQVS, the amyloid nucleation score result was “inactive”.
Still for that read-out and setting: the entry for FVAADSPGVSSFKAN is “inactive”; for TMWTTGTTPPRMISHT it is “inactive”.
Same read-out and setting: the entry for GSVYETNDTELLRVTLR is “inactive”; for FINMKIKQTYMRVFFWICAV it is “inactive”; for NWLSMQRTLFWP it is -0.38 ± 0.5.
Take IMFSVRRLKSILSRVAWYNT: the amyloid nucleation score result is “inactive”.
As for LKSGVFFG, the amyloid nucleation score entry was “inactive”.
The same measure, in the same setting: under MNVFWCACYRCSDRVSMKVW stands 2 ± 0.058; under FLCRAVRDKNHDIGLCWELR, -0.488 ± 0.8; under NTGWSF, “inactive”.
For DCCSYRSERA, the amyloid nucleation score entry was “inactive”.
Same read-out and setting: under VNLHLTVEQLSMLYRTNANV stands 1.07 ± 0.14; under ICYTALGCYISSQFSGWGRM, 1.12 ± 0.088.
Take KTYEETSDTYYFQVLFTNPI: the amyloid nucleation score entry is “inactive”.
FTSYRSEPTIYALLCLGLSL gave an amyloid nucleation score of 2.08 ± 0.093.
For VNIWLPKTPLQLKLNLPSSM, the amyloid nucleation score was -0.829 ± 1.1.
Take VLVNHGFYW: the amyloid nucleation score entry is “inactive”.
For the substance RGMISVMPSVIGPAL, the amyloid nucleation score entry is “inactive”.
With YFFIPVKW, the amyloid nucleation score entry is “inactive”.
For the substance LHTICHMLLIH, the amyloid nucleation score entry was “inactive”.
Turning to AYGRVTMCIGWKDPYGRCL, the amyloid nucleation score was determined as 0.638 ± 0.31.
Regarding IKWVCTEVRSGCLSVDCVLV, the amyloid nucleation score entry is “inactive”.
Turning to KFCVVSKTLFNFLTFWFEHG, the amyloid nucleation score entry was “inactive”.
The same measure, in the same setting: the entry for YRRELAKSHLYMSIWRNRLP is “inactive”.
As for FIASNASNCWYLMFVAKLYG, the amyloid nucleation score entry is “inactive”.
With YVFFLSLNIKPMLYTTLVGV, the amyloid nucleation score was -0.138 ± 0.51.
For the substance IMHIYYTYSIPLCDRRGRSY, the amyloid nucleation score came out at 0.856 ± 0.26.
With AKMNYKLWRDVA, the amyloid nucleation score result was “inactive”.
Regarding FSSKDRLGSHSRYYFYCATL, the amyloid nucleation score result is “inactive”.
Take SKWAFPYPA: the amyloid nucleation score entry was “inactive”.
Consider DMGTTCPSCSKRLAGQGKAA, for which the amyloid nucleation score entry was “inactive”.
Turning to DKSLFKII, the amyloid nucleation score entry is “inactive”.
Consider FKAWMSLKLSTRRLNSCVPR, for which the amyloid nucleation score entry was “inactive”.
Same read-out and setting: the entry for MNCWYFLLGACWITIKHLFY is “inactive”.
Regarding PTFFTSVLGFNYRVLYRIAV, the amyloid nucleation score result was “inactive”.
Regarding CDSTPYFLMGSWLG, the amyloid nucleation score entry was “inactive”.
